Test results reported in patent US20180193413A1 (UNIVERSITY OF BRITISH COLUMBIA, published 2018).
Bridges are numbered along the chain shown (N, C = ends). Where no end group is shown, it is not given here.

T1: Human pancreatic α-amylase (human, UniProt P04746 16-511)
T1 construct: Recombinant, secreted from Pichia pastoris, purified and deglycosylated; also called HPA; human pancreatic alpha amylase
T1 sequence: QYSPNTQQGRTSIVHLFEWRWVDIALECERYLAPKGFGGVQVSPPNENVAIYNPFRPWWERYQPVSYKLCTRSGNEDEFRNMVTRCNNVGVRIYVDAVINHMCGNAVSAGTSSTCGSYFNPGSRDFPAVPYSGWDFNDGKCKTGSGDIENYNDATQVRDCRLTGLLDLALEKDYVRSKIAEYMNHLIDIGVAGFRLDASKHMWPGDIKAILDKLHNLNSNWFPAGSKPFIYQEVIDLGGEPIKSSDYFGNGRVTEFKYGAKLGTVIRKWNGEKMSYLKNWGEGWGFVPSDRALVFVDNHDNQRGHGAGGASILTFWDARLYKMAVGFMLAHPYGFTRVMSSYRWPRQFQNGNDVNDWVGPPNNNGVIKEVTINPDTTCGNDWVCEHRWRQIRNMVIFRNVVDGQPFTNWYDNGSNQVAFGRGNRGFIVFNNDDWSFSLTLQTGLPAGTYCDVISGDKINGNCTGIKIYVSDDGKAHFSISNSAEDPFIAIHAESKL

T2: Porcine pancreatic α-amylase (porcine, UniProt P00690 16-511)
T2 construct: Bought enzyme; also called PPA
T2 sequence: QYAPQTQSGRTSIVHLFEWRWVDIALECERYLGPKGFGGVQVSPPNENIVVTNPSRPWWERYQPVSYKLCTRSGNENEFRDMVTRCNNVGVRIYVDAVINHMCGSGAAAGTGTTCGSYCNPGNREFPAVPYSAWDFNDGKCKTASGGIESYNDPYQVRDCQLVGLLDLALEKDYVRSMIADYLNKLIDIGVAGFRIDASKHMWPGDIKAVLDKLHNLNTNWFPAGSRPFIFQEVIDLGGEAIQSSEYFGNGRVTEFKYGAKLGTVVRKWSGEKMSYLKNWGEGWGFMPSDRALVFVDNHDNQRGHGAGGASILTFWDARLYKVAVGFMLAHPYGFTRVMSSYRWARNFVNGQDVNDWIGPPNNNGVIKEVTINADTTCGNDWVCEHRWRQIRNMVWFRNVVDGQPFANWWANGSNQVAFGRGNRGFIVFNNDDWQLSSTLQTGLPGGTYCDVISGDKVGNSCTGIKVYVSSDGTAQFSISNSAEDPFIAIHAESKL

T3: T163R HPA mutant (human, UniProt P04746 16-511)
T3 construct: it may be shifted against the precursor entry
T3 sequence: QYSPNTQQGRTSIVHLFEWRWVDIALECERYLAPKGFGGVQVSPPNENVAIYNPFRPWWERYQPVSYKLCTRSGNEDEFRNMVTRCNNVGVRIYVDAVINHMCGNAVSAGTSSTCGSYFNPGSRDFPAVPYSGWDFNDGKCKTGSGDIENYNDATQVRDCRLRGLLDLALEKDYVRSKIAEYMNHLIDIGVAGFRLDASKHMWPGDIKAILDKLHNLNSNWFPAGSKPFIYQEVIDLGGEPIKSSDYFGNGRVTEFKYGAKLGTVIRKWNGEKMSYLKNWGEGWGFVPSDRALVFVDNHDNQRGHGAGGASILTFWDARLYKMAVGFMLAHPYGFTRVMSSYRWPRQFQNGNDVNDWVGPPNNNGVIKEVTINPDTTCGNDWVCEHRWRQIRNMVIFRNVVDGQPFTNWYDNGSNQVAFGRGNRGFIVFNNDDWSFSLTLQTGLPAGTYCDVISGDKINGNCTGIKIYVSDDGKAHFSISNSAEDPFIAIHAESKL

B1: Helianthamide (peptide)
peptide: ESGNSCYIYHGVSGICKASCAEDEKAMAGMGVCEGHLCCYKTPW
modifications: disulfide 16-33, 20-39, 6-38
notes: 44-residue peptide with three disulfide bonds in a 1-5, 2-4, 3-6 pattern (C6-C38, C16-C33, C20-C39); crystal structure with PPA; also called recombinant Helianthamide; synthetic Helianthamide
B2: bar′-Helianthamide fusion (other)
chain: ESGNSCYIYHGVSGICKASCAEDEKAMAGMGVCEGHLCCYKTPW
modifications: not fully specified (N-terminus); ends and bridges not checked
notes: Uncleaved fusion secreted from E. coli BL21*(DE3), purified on nickel; The text says that the junction is a TEV site; also called barnase′-helianthamide
B3: Bar′-Y9A (other)
chain: ESGNSCYIAHGVSGICKASCAEDEKAMAGMGVCEGHLCCYKTPW
modifications: not fully specified (N-terminus); ends and bridges not checked
notes: Tested as uncleaved fusion; also called Y9A mutant of Helianthamide in bar′-Helianthamide fusion form
B4: Bar′-Y7A (other)
chain: ESGNSCAIYHGVSGICKASCAEDEKAMAGMGVCEGHLCCYKTPW
modifications: not fully specified (N-terminus); ends and bridges not checked
notes: Tested as uncleaved fusion; also called Y7A mutant of Helianthamide in bar′-Helianthamide fusion form
B5: Bar′-H10A (other)
chain: ESGNSCYIYAGVSGICKASCAEDEKAMAGMGVCEGHLCCYKTPW
modifications: not fully specified (N-terminus); ends and bridges not checked
notes: Tested as uncleaved fusion; also called H10A mutant of Helianthamide in bar′-Helianthamide fusion form

Columns and labels:
[1] = biological target: T1, Human pancreatic α-amylase; experiment: enzyme kinetics (CNP-G3 hydrolysis), Morrison tight-binding fit, competitive inhibition; recombinant helianthamide
[2] = biological target: T2, Porcine pancreatic α-amylase; experiment: enzyme kinetics, inhibition of glycosidase activity
T163R HPA mutant [3] = biological target: T3, T163R HPA mutant; experiment: enzyme kinetics, Ki against T163R HPA compared with HPA
T163R HPA mutant [4] = biological target: T3, T163R HPA mutant; experiment: enzyme kinetics (CNP-G3 hydrolysis), uncleaved bar′ fusion
[5] = biological target: T1, Human pancreatic α-amylase; experiment: as above
[6] = biological target: T1, Human pancreatic α-amylase; experiment: enzyme kinetics, Ki of bar′ fusion mutants against HPA

Binder | Ki [1] [nM] | Ki [2] [nM] | fold decrease in potency (against wild-type HPA) (T163R HPA mutant [3]) [fold] | Ki (T163R HPA mutant [4]) [nM] | Ki [5] [nM] | fold decrease in potency (against the bar′-Helianthamide fusion) [6] [fold]
B1 | 0.01 | 0.1 |  |  |  | 
B2 |  |  | 20 | 20 | 0.9 | 
B3 |  |  |  | 960 | 47 | 50
B4 |  |  |  | 107 | 5 | 
B5 |  |  |  | 321 | 15 | 
